Where “and” joins values, the source holds several entries; their conditions need not be identical. Equal entries are not always repeated.
What was measured:
[1] = target: mutant mtHsp70 encoded by the allele ssc1-2 (Ssc1-2p) (S. cerevisiae (endogenous in yeast mitochondria)) (UniProt P0CS90); test: co-IP
[2] = target: mitochondrial Hsp70 (mtHsp70, Ssc1p), wild type (S. cerevisiae (endogenous in yeast mitochondria)) (UniProt P0CS90); test: co-IP

Substance	fold efficiency of binding against wild-type mtHsp70 [1] [fold]	fold reduction of complex formation with mtHsp70 against authentic Tim44 [2]	percent reduction of complex formation with mtHsp70 against authentic Tim44 [2] [%]
Su9-DHFR, imported into mitochondria (from UniProt P00375 1-187)	> 4	–	–
Tim44Δ18 (Tim44 with a deletion of residues 185–202) (natural protein)	–	3 fold and 4 fold	70

From publication PMC2133122
